Results: patent publication US20240166755A1, “CHIMERIC ANTIGEN RECEPTORS TARGETING CANCER” (University of Southern California, priority 2016, published 2024)

Assays:
[1] = tested on: Jurkat cells stably expressing MPL and GLuc; test: GLuc cell death assay, Jurkat-MPL-GLuc target cells; conditions: T cells, puromycin selected, E:T 10:1, 4 hours
[2] = tested on: HEL cells stably expressing GLuc; test: GLuc cell death assay, HEL-GLuc target cells; conditions: for GLuc activity (lysis of target cells): T cells, puromycin selected, E:T 10:1, 4 hours
Description: The blood samples to isolate Peripheral blood mononuclear cells (PBMCs) were obtained from healthy de-identified adult donors. PBMC were isolated from buffy coats by Ficoll-Hypaque gradient centrifugation and re-suspended in XVIVO medium (Lonza) supplanted with 10 ng/ml soluble anti-CD3, 10 ng/ml soluble anti-CD28 and 100 IU recombinant human-IL2. […] The PBMC expressing the indicated CARs and uninfected PBMC were co-cultured with HEL-GLuc target cells for 4 h and lysis of target cells measured by the single-step homogenous GLuc assay by injecting 0.5× CTZ assay buffer as described above.
Cells were selected with puromycin and expanded.
Cells were subsequently co-cultured overnight with HEL.92.1.7 cells that had been engineered to express GLuc.

[3] = tested on: RAJI-MPL cells; test: Jurkat-NFAT-EGFP reporter assay, co-culture with RAJI-MPL or RAJI-vector cells (Table 25); format: cell-based, human; conditions: RAJI-MPL cells compared with RAJI-vector cells
Description: (§1) Cells were subsequently co-cultured with MPL-expressing HEL.92.1.7 (HEL) cells. […] CAR construct with HEL cells. The experiment was repeated by co-culturing the Jurkat-NFAT-EGFP cells with either RAJI cells, which have weak MPL expression, or with RAJI-MPL cells that were engineered to ectopically express human MPL receptor.

[4] = tested on: MPL-expressing HEL.92.1.7 (HEL) cells; test: Jurkat-NFAT-EGFP reporter assay, co-culture with HEL cells (Table 25); format: cell-based, human; conditions: FACS
Description: as §1

Molecule	GLuc activity (lysis of target cells) [1]	GLuc activity (lysis of target cells) [2]	EGFP expression (NFAT-EGFP reporter) [3]	EGFP expression (NFAT-EGFP reporter) [4]	killing of HEL-GLuc cells ([2]; CAR-expressing PBMC, 4 h, versus uninfected PBMC)
CD8SP-12E10-(vL-vH)-Myc-CD28z-T2A-PAC(031615-S03): CAR construct targeting MPL, 12E10 scFv, CD28 costimulatory domain (protein, listed as DNA) MALPVTALLLPLALLLHAARPDQVQLQQSGPGLVKPSETLSLTCTVSGDSISSYYWSWIRQPPGKGLEWIGYIYYSGSTNYNPSLKSRVTISVDTSKSQFSLKLSSVTAADTAVYYCARGRYFDVWGRGTMVTSSGGGGSGGGGSGGGGSSSYVLTQPPSVSGSPGQSITISCTGTSSDVGGYNYVSWYQQHPGKAPKLMIYEGSKRPSGVSNRFSGSKSGNTASLTISGLQAEDEADYYCSSYTTRSTRVFGGGTKLTVLGAAATREQKLISEEDLKIEVMYPPPYLDNEKSNGTIIHVKGKHLCPSPLFPGPSKPFWVLVVVGGVLACYSLLVTVAFIIFWVRSKRSRLLHSDYMNMTPRRPGPTRKHYQPYAPPRDFAAYRSRVKFSRSADAPAYQQGQNQLYNELNLGRREEYDVLDKRRGRDPEMGGKPRRKNPQEGLYNELQKDKMAEAYSEIGMKGERRRGKGHDGLYQGLSTATKDTYDALHMQALPPRSSGSGEGRGSLLTCGDVEENPGPHMTEYKPTVRLATRDDVPRAVRTLAAAFADYPATRHTVDPDRHIERVTELQELFLTRVGLDIGKVWVADDGAAVAVWTTPESVEAGAVFAEIGPRMAELSGSRLAAQQQMEGLLAPHRPKEPAWFLATVGVSPDHQGKGLGSAVVLPGVEAAERAGVPAFLETSAPRNLPFYERLGFTVTADVEVPEGPRTWCMTRKPGA	stronger				
CD8SP-178-(vL-vH)-Myc-CD28z-T2A-PAC(031615-R04): CAR construct targeting MPL, 178 scFv, CD28 costimulatory domain (protein, listed as DNA) MALPVTALLLPLALLLHAARPDIVMTQAAPSIPVTPGESVSISCRSDKSLLHSNGNTYLFWFLQRPGQSPQLLIYRMSNLASGVPDRFSGSGSGTAFTLRISGVEAEDVGVYYCMQHLEYPYTFGGGTKLEIKGGGGSGGGGSGGGGSQVQLQQSGPELVKPGASVKMSCKASGYAFSSSWLNWVRQRPGKGLEWIGRIYPGDGENHYNGKFKGKATLTADKSSSTGYMQLSSLTSEDSAVYFCASYYEGGYWGQGTLITVSATREQKLISEEDLKIEVMYPPPYLDNEKSNGTIIHVKGKHLCPSPLFPGPSKPFWVLVVVGGVLACYSLLVTVAFIIFWVRSKRSRLLHSDYMNMTPRRPGPTRKHYQPYAPPRDFAAYRSRVKFSRSADAPAYQQGQNQLYNELNLGRREEYDVLDKRRGRDPEMGGKPRRKNPQEGLYNELQKDKMAEAYSEIGMKGERRRGKGHDGLYQGLSTATKDTYDALHMQALPPRSSGSGEGRGSLLTCGDVEENPGPHMTEYKPTVRLATRDDVPRAVRTLAAAFADYPATRHTVDPDRHIERVTELQELFLTRVGLDIGKVWVADDGAAVAVWTTPESVEAGAVFAEIGPRMAELSGSRLAAQQQMEGLLAPHRPKEPAWFLATVGVSPDHQGKGLGSAVVLPGVEAAERAGVPAFLETSAPRNLPFYERLGFTVTADVEVPEGPRTWCMTRKPGA	modest	modest			
CD8SP-AB317-(vL-vH)-Myc-CD28z-T2A-PAC(031615-T04): CAR construct targeting MPL, AB317 scFv, CD28 costimulatory domain (protein, listed as DNA) MALPVTALLLPLALLLHAARPDIVLTQSPASLAVSLGQSVTISCRASESVEYYGTSLMQWYQQKPGQPPKLLIYGASNVESGVPARFSGSGSGTDFSLNIHPVEEDDIAMYFCQQSRKVPWTFGGGTKLEIKGGGGSGGGGSGGGGSEVKLVESGGGLVKPGGSRKLSCAASGFTFSSYTMSWVRQTPAKRLEWVATISSGSSTIYYADTVKGRFTISRDNAKNTLFLQMTSLRSEDTAMYYCARRWFLDCWGQGTTLTVSSTREQKLISEEDLKIEVMYPPPYLDNEKSNGTIIHVKGKHLCPSPLFPGPSKPFWVLVVVGGVLACYSLLVTVAFIIFWVRSKRSRLLHSDYMNMTPRRPGPTRKHYQPYAPPRDFAAYRSRVKFSRSADAPAYQQGQNQLYNELNLGRREEYDVLDKRRGRDPEMGGKPRRKNPQEGLYNELQKDKMAEAYSEIGMKGERRRGKGHDGLYQGLSTATKDTYDALHMQALPPRSSGSGEGRGSLLTCGDVEENPGPHMTEYKPTVRLATRDDVPRAVRTLAAAFADYPATRHTVDPDRHIERVTELQELFLTRVGLDIGKVWVADDGAAVAVWTTPESVEAGAVFAEIGPRMAELSGSRLAAQQQMEGLLAPHRPKEPAWFLATVGVSPDHQGKGLGSAVVLPGVEAAERAGVPAFLETSAPRNLPFYERLGFTVTADVEVPEGPRTWCMTRKPGA	stronger	stronger			
CD8SP-161-(vL-vH)-Myc-CD28z-T2A-PAC(021715-Z07): CAR targeting MPL: 161 scFv with CD28 hinge, transmembrane and cytosolic domains and CD3z (protein, listed as DNA, CAR targeting MPL: 161 scFv with CD28 hinge, transmembrane and cytosolic domains and CD3z) MALPVTALLLPLALLLHAARPDDIQMTQSSSSFSVSLGDRVTITCMASEDIYIRLAWYQQKPGNAPRLLISAATSLETGVPSRFSGSGSGKDYTLSITSLQTEDVGTYYCQQYWSSPWTFGGGTKLEINGGGGSGGGGSGGGGSDVQLQESGPGLVKPSQSLSLTCTVTGYSITSDYTWNWIRQFPGNKLEWMGYITYSGSTSYNPSLKSRNSITRDTSKNQFFLQLNSVTTEDTATYYCARLGRRYTMDYWGQGTSVTVSSTREQKLISEEDLKIEVMYPPPYLDNEKSNGTIIHVKGKHLCPSPLFPGPSKPFWVLVVVGGVLACYSLLVTVAFIIFWVRSKRSRLLHSDYMNMTPRRPGPTRKHYQPYAPPRDFAAYRSRVKFSRSADAPAYQQGQNQLYNELNLGRREEYDVLDKRRGRDPEMGGKPRRKNPQEGLYNELQKDKMAEAYSEIGMKGERRRGKGHDGLYQGLSTATKDTYDALHMQALPPRSSGSGEGRGSLLTCGDVEENPGPHMTEYKPTVRLATRDDVPRAVRTLAAAFADYPATRHTVDPDRHIERVTELQELFLTRVGLDIGKVWVADDGAAVAVWTTPESVEAGAVFAEIGPRMAELSGSRLAAQQQMEGLLAPHRPKEPAWFLATVGVSPDHQGKGLGSAVVLPGVEAAERAGVPAFLETSAPRNLPFYERLGFTVTADVEVPEGPRTWCMTRKPGA	stronger	stronger	strongest	strongest	
CD8SP-MPL-161-(vL-vH)-Myc-BBz-T2A-PAC(021015-R07): CAR targeting MPL: 161 scFv, Myc tag, CD8 hinge/TM, 41BB, CD3z, T2A, puromycin resistance (protein, listed as DNA, CAR targeting MPL: 161 scFv, Myc tag, CD8 hinge/TM, 41BB, CD3z, T2A, puromycin resistance) MALPVTALLLPLALLLHAARPDDIQMTQSSSSFSVSLGDRVTITCMASEDIYIRLAWYQQKPGNAPRLLISAATSLETGVPSRFSGSGSGKDYTLSITSLQTEDVGTYYCQQYWSSPWTFGGGTKLEINGGGGSGGGGSGGGGSDVQLQESGPGLVKPSQSLSLTCTVTGYSITSDYTWNWIRQFPGNKLEWMGYITYSGSTSYNPSLKSRNSITRDTSKNQFFLQLNSVTTEDTATYYCARLGRRYTMDYWGQGTSVTVSSTREQKLISEEDLAKPTTTPAPRPPTPAPTIASQPLSLRPEACRPAAGGAVHTRGLDFACDIYIWAPLAGTCGVLLLSLVITLYCKRGRKKLLYIFKQPFMRPVQTTQEEDGCSCRFPEEEEGGCELRVKFSRSADAPAYQQGQNQLYNELNLGRREEYDVLDKRRGRDPEMGGKPRRKNPQEGLYNELQKDKMAEAYSEIGMKGERRRGKGHDGLYQGLSTATKDTYDALHMQALPPRSSGSGEGRGSLLTCGDVEENPGPHMTEYKPTVRLATRDDVPRAVRTLAAAFADYPATRHTVDPDRHIERVTELQELFLTRVGLDIGKVWVADDGAAVAVWTTPESVEAGAVFAEIGPRMAELSGSRLAAQQQMEGLLAPHRPKEPAWFLATVGVSPDHQGKGLGSAVVLPGVEAAERAGVPAFLETSAPRNLPFYERLGFTVTADVEVPEGPRTWCMTRKPGA			strongest	strongest	increased killing
CD8SP-MPL-VB22Bw4-(vL-vH)-Myc-CD28z-T2A-PAC(031615-B06): CAR construct targeting MPL, VB22Bw4 scFv, CD28 costimulatory domain (protein, listed as DNA) MALPVTALLLPLALLLHAARPDDIVMTQSPLSLPVTPGEPASISCRSSKSLLHSNGNTYLYWFLQKPGQSPQLLIYRMSNLASGVPDRFSGSGSGTDFTLKISRVEAEDVGVYYFMQHIEYPFTFGQGTKLEIKGGGGSGGGGSGGGGSQVQLVQSGPEVKKPGASVKVSCKASGYTFTNSWMNWVRQRPGKGLEWIGRIYPGDGETIYNGKFRVRVTITADESTSTAYMQLSSLRSEDTAVYYCARGYDDYSFAYWGQGTTVTVSSTREQKLISEEDLKIEVMYPPPYLDNEKSNGTIIHVKGKHLCPSPLFPGPSKPFWVLVVVGGVLACYSLLVTVAFIIFWVRSKRSRLLHSDYMNMTPRRPGPTRKHYQPYAPPRDFAAYRSRVKFSRSADAPAYQQGQNQLYNELNLGRREEYDVLDKRRGRDPEMGGKPRRKNPQEGLYNELQKDKMAEAYSEIGMKGERRRGKGHDGLYQGLSTATKDTYDALHMQALPPRSSGSGEGRGSLLTCGDVEENPGPHMTEYKPTVRLATRDDVPRAVRTLAAAFADYPATRHTVDPDRHIERVTELQELFLTRVGLDIGKVWVADDGAAVAVWTTPESVEAGAVFAEIGPRMAELSGSRLAAQQQMEGLLAPHRPKEPAWFLATVGVSPDHQGKGLGSAVVLPGVEAAERAGVPAFLETSAPRNLPFYERLGFTVTADVEVPEGPRTWCMTRKPGA	modest				
